Reference: patent US20210340249A1, “MUSCARINIC ACETYLCHOLINE RECEPTOR BINDING AGENTS AND USES THEREOF” (VIB VZW, priority 2013, published 2021)
“Also recorded” adds a separate entry of the source.

Target: T1, human M2 muscarinic receptor (Homo sapiens, UniProt P08172, DEL233-374/N2D/N3D/N6D/N9D)
T1 construct: FLAG (N); 8xHis (C); made in house; host or cells: Sf9 insect cells, BestBac baculovirus system
T1 sequence (P08172 with tags, fused parts or gaps N2D/N3D/N6D/N9D/DEL233-374): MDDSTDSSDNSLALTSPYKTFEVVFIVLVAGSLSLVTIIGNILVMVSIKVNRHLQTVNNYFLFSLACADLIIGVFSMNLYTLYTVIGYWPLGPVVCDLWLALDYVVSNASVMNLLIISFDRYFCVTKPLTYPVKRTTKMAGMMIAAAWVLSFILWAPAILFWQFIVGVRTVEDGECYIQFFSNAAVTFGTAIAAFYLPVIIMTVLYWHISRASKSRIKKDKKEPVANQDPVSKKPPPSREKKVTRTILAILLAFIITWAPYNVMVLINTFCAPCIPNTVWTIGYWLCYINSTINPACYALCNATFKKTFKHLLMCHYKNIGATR
Assay: M2 receptor radioligand binding assay (3H N-methyl scopolamine, receptor reconstituted into HDL particles)
Details: for enhancement of M2 receptor affinity for the agonist iperoxo: competition binding assay, iperoxo vs 3H N-methyl scopolamine, compared with G protein Gi
From the text: M2 muscarinic receptor expression and purification. The human M2 muscarinic receptor gene was modified to remove glycosylation sites, and to add an amino-terminal FLAG tag and a carboxy-terminal 8×His tag. In addition, residues 233-374 of intracellular loop 3 were deleted. […] Human M2 muscarinic receptor bearing an amino-terminal FLAG epitope tag and carboxy-terminal 8×His tag was expressed in Sf9 cells using the BestBac baculovirus system (Expression Systems; Davis, Calif.). Cells were infected at a density of 4×10^6 cells/mL, then incubated for two days at 27° C. Receptor was extracted and purified in the manner described previously for the M3 muscarinic receptor (Kruse et al., 2012). Briefly, receptor was first purified by Ni-NTA chromatography, FLAG affinity chromatography, then size exclusion chromatography. 1 μM atropine was included in all buffers. Receptor was then labeled with a 5-fold molar excess of biotin-NHS ester (Sigma-Aldrich; St. Louis, Mo.) in buffer containing 25 mM HEPES pH 7.2. Following a 30 minute incubation at room temperature and a 30 minute incubation on ice, unreacted label was quenched with 50 mM Tris pH 8. Directly labeled samples with fluorophore-NHS esters were prepared similarly. Receptor was then desalted into buffer containing either 10 μM tiotropium, 10 μM iperoxo, or buffer containing no ligand. Receptor eluted in buffer containing no ligand was treated with 50 μM iperoxo mustard (derivative of iperoxo that allows covalent binding to M2 receptor) for 20 minutes at room temperature. Samples were then concentrated, aliquoted, and flash frozen with 20% (v/v) glycerol.
M2 receptor radioligand binding assays. M2 receptor was expressed and purified, as described above. Receptor was then reconstituted into HDL particles consisting of apolipoprotein A1 and a 3:2 (mol:mol) mixture of the lipids POPC:POPG (1-palmitoyl-2-oleoyl-sn-glycero-3-phosphocholine: 1-palmitoyl-2-oleoyl-sn-glycero-3-phosphocholine and 1-hexadecanoyl-2-(9Z-octadecenoyl)-sn-glycero-3-phospho-(r-rac-glycerol), respectively, Avanti Polar Lipids). Binding reactions contained 50 fmol functional receptor, 0.6 nM 3H N-methyl scopolamine (NMS), 100 mM NaCl, 20 mM HEPES pH 7.5, 0.1% BSA, and ligands and nanobodies as indicated. Single point allosteric effects of nanobodies were measured in the presence of 10 nM iperoxo. Concentration-dependent effects of nanobodies were measured in the presence of 10 nM iperoxo. All reactions were 500 μL in volume. Reactions were mixed and then incubated for two hours. Samples were then filtered on a 48-well harvester (Brandel) onto a filter which had been pretreated with 0.1% polyethylenimine. All measurements were taken by liquid scintillation counting, and experiments were performed at least in triplicate.
To determine whether the Nanobody variants that specifically stain agonist-bound M2 receptor are able to stabilize the M2 receptor active state, a binding assay was performed. Due to the allosteric properties of GPCRs, molecules that stabilize the active conformation of a receptor also increase agonist affinity. Several conformationally specific binders were isolated and were tested for their ability to induce an increase in the affinity of the non-covalent agonist iperoxo.

B1: Nb9-8: Nanobody SEQ ID NO:1; M2 Gi mimetic, active-state stabilizing, binds intracellular surface of M2 receptor (protein, listed as Lama glama)
VHH: QVQLQESGGGLVQAGDSLRLSCAASGFDFDNFDDYAIGWFRQAPGQEREGVSCIDPSDGSTIYADSAKGRFTISSDNAENTVYLQMNSLKPEDTAVYVCSAWTLFHSDEYWGQGTQVTVSS
enhancement of M2 receptor affinity for the agonist iperoxo: confirmed to enhance agonist affinity; also recorded: enhanced the affinity of the M2 receptor for iperoxo to almost the same extent as that observed in the presence of the heterotrimeric G protein Gi; also recorded: substantial enhancement of iperoxo affinity
EC50 (concentration-dependent effect of nanobody in the presence of 10 nM iperoxo, 0.6 nM 3H N-methyl scopolamine, read-out: EC50 of nanobody effect on agonist ability to displace a radioactive probe): ~100 nM
dose-dependent effect on agonist ability to displace a radioactive probe (in the presence of 10 nM iperoxo, 3H N-methyl scopolamine): dose-dependent effect

B2: clone B4: Nanobody SEQ ID NO:16; functional extracellular M2 nanobody ligand (protein, listed as Lama glama)
VHH: QVQLQESGGGLVQAGGSLRLSCAASGRTFSNYAMSWFRQAPGKERGLVATIYRSGEGTYYLPSAKGRFTVSRDNAKNTAYLQMNSLKAEDTAVYYCAVMSRGTWSMWGQGTQVTVSS
effect on binding of the radioligand N-methylscopolamine (allosteric binding properties) (single point, with and without agonist (10 nM iperoxo)): decrease in the binding of the radioligand N-methylscopolamine only in the presence of agonist

B3: Nb9-20: Nanobody SEQ ID NO:11; M2 Gi mimetic (protein, listed as Lama glama)
VHH: QVQLQESGGGLVQPEGSLTLACDTSGFTMNYYAIAWFRQAPEKEREGLATISSIDGRTYYADSVKGRFTISRDSAKNMVYLQMNNLRPEDTAVYYCSAGPDYSDYGDESEYWGQGTQVTVSS
enhancement of M2 receptor affinity for the agonist iperoxo: confirmed to enhance agonist affinity

B4: Nb9-1: Nanobody SEQ ID NO:2; M2 Gi mimetic (protein, listed as Lama glama)
VHH: QVQLQESGGGLVQAGGSLRLSCAASGHTFSSARMYWVRQAPGKEREFVAAISRSGFTYSADSVKGRFTISRDIANNTVYLQMNSLQPEDTAIYTCYAAYLDEFYNDYTHYWGLGTQVTVSS
enhancement of M2 receptor affinity for the agonist iperoxo: confirmed to enhance agonist affinity
